Source: the Immune Epitope Database (IEDB)
Values belong to the sequence of their own block, whether it stands above or below them.

Key:
[1] = biological target: HLA-B*07:02; assay: IEDB peptide-MHC binding, purified MHC/competitive/radioactivity; filed as Kd, often an IC50 or EC50 that approximates it; ≥ and ≤ were set here for values at or beyond the usual limits of such assays
[2] = biological target: HLA-B*35:01; assay: as above
[3] = biological target: HLA-B*51:01; assay: as above
[4] = biological target: HLA-B*53:01; assay: as above
[5] = biological target: HLA-B*54:01; assay: as above
[6] = biological target: HLA-A*02:01; assay: as above
[7] = biological target: HLA-A*03:01; assay: IEDB peptide-MHC binding, purified MHC/competitive/fluorescence; filed as Kd, often an IC50 or EC50 that approximates it; ≥ and ≤ were set here for values at or beyond the usual limits of such assays
[8] = biological target: HLA-A*02:02; assay: IEDB peptide-MHC binding, purified MHC/competitive/radioactivity; filed as Kd, often an IC50 or EC50 that approximates it; ≥ and ≤ were set here for values at or beyond the usual limits of such assays; settings: source organism: Trypanosoma cruzi
[9] = biological target: HLA-A*02:03; assay: as above; settings: source organism: Trypanosoma cruzi
[10] = biological target: HLA-A*02:06; assay: as above; settings: source organism: Trypanosoma cruzi
[11] = biological target: HLA-A*68:02; assay: as above; settings: source organism: Trypanosoma cruzi
[12] = biological target: HLA-B*46:01; assay: IEDB peptide-MHC binding, purified MHC/direct/fluorescence; filed as Kd, often an IC50 or EC50 that approximates it; ≥ and ≤ were set here for values at or beyond the usual limits of such assays; settings: source organism: West Nile virus
[13] = biological target: HLA-B*07:02; assay: as above; settings: source organism: Ovis aries
[14] = biological target: HLA-A*02:01; assay: IEDB peptide-MHC binding, purified MHC/competitive/fluorescence; filed as Kd, often an IC50 or EC50 that approximates it; ≥ and ≤ were set here for values at or beyond the usual limits of such assays; settings: source organism: Pan troglodytes
[15] = biological target: HLA-B*27:03; assay: as above; settings: source organism: Pan troglodytes
[16] = source organism: Triticum aestivum
[17] = source organism: Trypanosoma cruzi
[18] = source organism: Mammarenavirus guanaritoense
[19] = source organism: Vaccinia virus WR
[20] = source organism: SARS coronavirus Tor2

Kd [1, 16]: 8450 nM
Kd [2, 16]: ≥ 36100 nM
Kd [3, 16]: 1450 nM
Kd [4, 16]: ≥ 22400 nM
Kd [5, 16]: ≥ 87700 nM
Sequence: QPLQQYPL

Sequence: ILIEGIFFV
Kd ([6]; source organism: Human alphaherpesvirus 3): 0.03 nM

Sequence: SVYGLMGFK
Kd ([7]; source organism: Myxoma virus): 9.2 nM

Sequence: SLNRNFTLV
Kd [6, 17]: 23.6 nM
Kd [8]: 0.143 nM
Kd [9]: 0.0957 nM
Kd [10]: 0.69 nM
Kd [11]: 227 nM

Sequence: LPNDRVLDI
Kd [1, 18]: 7270 nM
Kd [2, 18]: 2690 nM
Kd [3, 18]: 539 nM
Kd [4, 18]: 258 nM
Kd [5, 18]: 13100 nM

Sequence: FPQHVITKDV
Kd [1, 19]: 57.3 nM
Kd [2, 19]: 153 nM
Kd [3, 19]: 66.2 nM
Kd [4, 19]: 16.2 nM
Kd [5, 19]: 0.46 nM

Sequence: KDAWLSLPK
Kd ([7]; source organism: Vibrio cholerae): ≥ 20000 nM

Sequence: AAGLQDCTMLV
Kd ([6]; source organism: Hepatitis C virus (isolate 1)): ≥ 50000 nM

Sequence: HPRHYATIM
Kd ([1]; source organism: Variola virus): 1.56 nM
Kd ([2]; source organism: Variola virus): 153 nM
Kd ([3]; source organism: Variola virus): 19100 nM
Kd ([4]; source organism: Variola virus): 17200 nM
Kd ([5]; source organism: Variola virus): 18200 nM

Sequence: RPKQRRPQGL
Kd [1, 20]: 308 nM
Kd [2, 20]: ≥ 69900 nM
Kd [3, 20]: ≥ 69600 nM
Kd [4, 20]: ≥ 69900 nM
Kd [5, 20]: ≥ 69900 nM

Sequence: NPSILPSLI
Kd [1, 19]: 287 nM
Kd [2, 19]: 1120 nM
Kd [3, 19]: 304 nM
Kd [4, 19]: 5.55 nM
Kd [5, 19]: ≥ 73400 nM

Sequence: HPDFCKNRRY
Kd [1, 19]: ≥ 69600 nM
Kd [2, 19]: 2210 nM
Kd [3, 19]: ≥ 69600 nM
Kd [4, 19]: 1140 nM
Kd [5, 19]: ≥ 49300 nM

Sequence: GPKVKYLYF
Kd [1, 20]: 15800 nM
Kd [2, 20]: ≥ 52000 nM
Kd [3, 20]: 13600 nM
Kd [4, 20]: ≥ 41000 nM
Kd [5, 20]: 10400 nM

Sequence: RPDTRYVLM
Kd [1, 20]: 15.4 nM
Kd [2, 20]: 1990 nM
Kd [3, 20]: 908 nM
Kd [4, 20]: 4850 nM
Kd [5, 20]: 1580 nM

Sequence: GPLVRKIFV
Kd [1, 20]: 1380 nM
Kd [2, 20]: 6070 nM
Kd [3, 20]: ≥ 22500 nM
Kd [4, 20]: 11900 nM
Kd [5, 20]: 18000 nM

Sequence: NPIINTHSF
Kd [1, 19]: 3 nM
Kd [2, 19]: 0.188 nM
Kd [3, 19]: ≥ 27100 nM
Kd [4, 19]: 0.178 nM
Kd [5, 19]: 9620 nM

Sequence: AMFEEQNQW
Kd [12]: ≥ 20000 nM

Kd [13]: 418 nM
Kd [14]: ≥ 20000 nM
Kd [15]: ≥ 20000 nM
Sequence: RVLTARKTV

Sequence: TLTSDDLLI
Kd ([6]; source organism: Lassa virus Josiah): 4170 nM

Sequence: LLGLWGFATA
Kd [6, 17]: 65.1 nM
Kd [8]: 50.5 nM
Kd [9]: 1.89 nM
Kd [10]: 61.3 nM
Kd [11]: ≥ 49600 nM
